Assay: soluble on expression in E. coli; label from the status in PepcDB or PDB records

Sequence | soluble on expression in E. coli
MGSDKIHHHHHHMRTIDTIFSSEVNVPLYHYTGIGSLLGMANCKSVWASSISYMNDSKEIVHACETVENVLRARIVFGQKDEEHRFLEQLIEWTKSCSKVAHTMFVFSLSEKPSLLSQWRSYTPHGKGVSLEFSPNKVNEIARFTGMRIAKCVYDDREQEEIISILVEKLLVNFRQELPAMDITDKPPSQCYYDFINQYTSDIYQVLAIIKHGAFEEECEWRLISPHIPKFGDPRLKFREGASMLVPYIELPLGDKPFFRKIILGPSQHQNLNMSGLSMFMSNQGISNELLNCQIPYREW | not soluble
MEKIVYEQLKETLYYEKLPNGLDVYILPKQGFNKTFATSTTKYGSVDNTFVPLGKEEMIRVPDGIAHFLEHKLFEKEDHDAFQLFSKQGASANAFTSFTRTAYLFSCTSNVEQNLNTLLNFVQEPYFSEKTVEKEKGIIGQEIQMYQDNPDWRLYFGLIDSLFVKHPIKIDIAGTIESISKITKDLLYECYETFYHPSNMLMFVVGAIDPEKTMDLVHENQAKKDYKNQPEIVRSFEEEPDEVNEKKKIISMPVQTPKCLVGIKATNLKEKGEALLKQEIALTLLLDYLFGKSSVHYESLYNEGLIDDTFSYDYTEENNFGFAMVGGDTKQPDELEERLKSILLNTNYNQLDEAALERVKKKKIGGFLRSLNSPEYIANQFTRYAFNESSLFDALTVLESLTVQDLQEVAQLLLSEEKMSVCQVLPKK | not soluble
SEETYTDSLDPEKLLQCPYDKNHQIRACRFPYHLIKCRKNHPDVASKLATCPFNARHQVPRAEISHHISSCDDRSCIEQDVVNQTRSLRQETLAESTWQCPPCDEDWDKDLWEQTSTPFAWGTTHYSDNNSPASNIVTEHKNNLASGMRVPKSLPYVLPWKNNGNAQ | soluble
MGDEDDDESCAVELRITEANLTGHEEKVSVENFELLKVLGTGAYGKVFLVRKAGGHDAGKLYAMKVLRKAALVQRAKTQEHTRTERSVLELVRQAPFLVTLHYAFQTDAKLHLILDYVSGGEMFTHLYQRQYFKEAEVRVYGGEIVLALEHLHKLGIIYRDLKLENVLLDSEGHIVLTDFGLSKEFLTEEKERTFSFCGTIEYMAPEIIRSKTGHGKAVDWWSLGILLFELLTGASPFTLEGERNTQAEVSRRILKCSPPFPPRIGPVAQDLLQRLLCKDPKKRLGAGPQGAQEVRNHPFFQGLDWVALAARKIPAPFRPQIRSELDVGNFAEEFTRLEPVYSPPGSPPPGDPRIFQGYSFVAPSILFDHNNAVMTDGLEAPGAGDRPGRAAVARSAMMQYELDLREPALGQGSFSVCRRCRQRQSGQEFAVKILSRRLEANTQREVAALRLCQSHPNVVNLHEVHHDQPHTYLVLELLRGGELLEHIRKKRHFSESEASQILRSLVSAVSFMHEEAGVVHRDLKPENILYADDTPGAPVKIIDFGFARLRPQSPGVPMQTPCFTLQYAAPELLAQQGYDESCDLWSLGVILYMMLSGQVPFQGASGQGGQSQAAEIMCKIREGRFSLDGEAWQGVSEEAKELVRGLLTVDPAKRLKLEGLRGSSWLQDGSARSSPPLRTPDVLESSGPAVRSGLNATFMAFNRGKREGFFLKSVENAPLAKRRKQKLRSATASRRGSPAPANPGRAPVAAKGAPRRANGPLPPS | soluble
EHEICAGETGVPLATDTIMLSRQVSFDRIRLLSGVSNDELQLLNPQYKRGIIPGNTQLCRLRLPVASIKKLDKVRDSLYSPDLEASVSDFPEQGGQHSGGSGRTAIFHNVKQGETLLSIAKRYGTTVAAIKRANGLKSSSVKPGQRLQITKSSASGTKKKSKYSAKRKSRRRK | not soluble
GPGSMEGPFLSRSIQYVERWLAEIVATKGTRAAATGSSEKAVAQKRGKATATAAAETGATSMSKCRFVVGRVNSVRPHPESQKLYIEEIDLGEEGGKCRTILSGLQEYVKQEDFLNRLVLVIANLEPRKIGGIPSEGMVLCASCNDEGSRSVVLLDVPEGTPVGERILFEGHEGPYEPVLKKKLAKHFEEVAAELRTNDKGEVVWRDMPFRTSCGIITASIPNGSVS | not soluble
MIITTTNGIEGKRVVEYKGIVCGEVISGVDFIKDFAAGLTNFFGGRSKSYEGELIEAREGAIREMKERAIQMGANAIIGVDIDYEVLGQGGNMLMVTASGTAVVIE | soluble
MGGGERYNIPAPQSRNVSKNQQQLNRQKTKEQNSQMKIVHKKKERGHGYNSSAAAWQAMQNGGKNKNFPNNQSWNSSLSGPRLLFKSQANQNYAGAKFSEPPSPSVLPKPPSHWVPVSFNPSDKEIMTFQLKTLLKVQV | not soluble
MGSDKIHHHHHHMTKKILFCATVDYHFKAFHLPYFKWFKQMGWEVHVAANGQTKLPYVDEKFSIPIRRSPFDPQNLAVYRQLKKVIDTYEYDIVHCHTPVGGVLARLAARQARRHGTKVLYTAHGFHFCKGAPMKNWLLYYPVEKWLSAYTDCLITINEEDYIRAKGLQRPGGRTQKIHGIGVNTERFRPVSPIEQQRLREKHGFREDDFILVYPAELNLNKNQKQLIEAAALLKEKIPSLRLVFAGEGAMEHTYQTLAEKLGASAHVCFYGFCSDIHELIQLADVSVASSIREGLGMNVLEGMAAEQPAIATDNRGHREIIRDGENGFLIKIGDSAAFARRIEQLYHKPELCRKLGQEGRKTALRFSEARTVEEMADIYSAYMDMDTKEKSV | not soluble
MKKRFIYHDEKSNKFWWIDYEGDSLAVNYGKVGSIGKFQTKEFDNEEQCLKEASKLIAAKMKKGYQEDPKFNFMDRYYFDDEEIGLHVKTSHPNFQCHFTDPLYMCCWDEESPFGSDEGADALNVLENSLRKEPDLDCADFPQMLIETMWGMKYIAMDSILEEDVRAQLLVDEMSTIQSNMITYATAFGQIKVMGKISHKLKKMGLNALARHQLTAKILQWGDGQDSPILQKMIDDLTAFPHENLEHHHHHH | soluble
MVEKFDTIYDYYVDKGYEPSKKRDIIAVFRVTPAEGYTIEQAAGAVAAESSTGTWTTLYPWYEQERWADLSAKAYDFHDMGDGSWIVRIAYPFHAFEEANLPGLLASIAGNIFGMKRVKGLRLEDLYFPEKLIREFDGPAFGIEGVRKMLEIKDRPIYGVVPKPKVGYSPEEFEKLAYDLLSNGADYMKDDENLTSPWYNRFEERAEIMAKIIDKVENETGEKKTWFANITADLLEMEQRLEVLADLGLKHAMVDVVITGWGALRYIRDLAADYGLAIHGHRAMHAAFTRNPYHGISMFVLAKLYRLIGIDQLHVGTAGAGKLEGGKWDVIQNARILRESHYKPDENDVFHLEQKFYSIKAAFPTSSGGLHPGNIQPVIEALGTDIVLQLGGGTLGHPDGPAAGARAVRQAIDAIMQGIPLDEYAKTHKELARALEKWGHVTPV | soluble
VVELDETPVRTLLARQGIYDKNSAIVAYELLYRNSDAENSHVDNLNQSSGEAATSSVLVQLFANLDVNTIIGNKQAFINFTHSHLVQKIPMLLPKNRIVIEVLETVAIDQPLLLNLMELKKQGYQIALDDFVFRNELAPLVDMADIIKIDVLHLDQQQIAEQLLPLKSFRGKLLAEKIEDKQQFNHCVNLGFDFFQGFFLNKP | not soluble
MTEEKPKIGRPPVLSCAERTCQILRAAEQVFVCHGYSGTTMDRIACAAGMSKRTLYQHFPDKLAVLQGILRAYDAGPLMESLTDPDPPGSAREILHRSLVEILRFLLCPAQVALTRLAVSEATAAPEVARLFYDNAMGGLSAAFTRRIAGLAAQGRIRCSDADWLGSSLVGCALNRQLLRRLTHPEAGPPDVAELERRVSALLDLVGPSLGFAD | not soluble
HVGYPLLLKWLPLKPKANDEGEHFAERHYKASASDNKLPSVTIIIPAYNEEQWIAEKIRNLASLDYPRDKLKVVIACDGCTDKTAEIAQDTIQEAICSDTLFIVNDHSINRGKVALINEEMKHVTSDITALSDTSALVSCDSLLLASQHYQNEKVGVVNATYQIMRTSNQGEAAYWQYQSRVKHQESLLGSTIGSHGAFYTFRTKLFEPLEAGTINDDFILPMRIVLRGFTSVYEPKMLALELEQSSDDADFKRRLRISAGNMQQLMQLKKLLLPRYRGTAFAFLSGKVLR | not soluble
MSTPSVHCLKPSPLHLPSGIPGSPGRQRRHTLPANEFRCLTPEDAAGVFEIEREAFISVSGNCPLNLDEVQHFLTLCPELSLGWFVEGRLVAFIIGSLWDEERLTQESLALHRPRGHSAHLHALAVHRSFRQQGKGSVLLWRYLHHVGAQPAVRRAVLMCEDALVPFYQRFGFHPAGPCAIVVGSLTFTEMHCSLRGHAALRRNSDR | soluble
MTVKCKAEESLTCSCVDVGTIIDGSDCSVEVHQFYSTEADANAVLERLTKKARNTESDPCEIKSEIVAVENGVQLNASFTFSCQAEAMIFELANR | not soluble
MSTLPPCPQCNSEYTYEDGALLVCPECAHEWSPNEAATASDDGKVIKDSVGNVLQDGDTITVIKDLKVKGSSLVVKVGTKVKNIRLVDGDHDIDCKIDGIGAMKLKSEFVRKV | not soluble
MSAAPLVGYSSSGSEDESEDGMRTRPGDGSHRRGQSPLPRQRFPVPDSVLNMFPGTEEGPEDDSTKHGGRVRTFPHERGNWATHVYVPYEAKEEFLDLLDVLLPHAQTYVPRLVRMKVFHLSLSQSVVLRHHWILPFVQALKARMTSFHRFFFTANQVKIYTNQEKTRTFIGLEVTSGHAQFLDLVSEVDRVMEEFNLTTFYQDPSFHLSLAWCVGDARLQLEGQCLQELQAIVDGFEDAEVLLRVHTEQVRCKSGNKFFSMPLK | soluble
MIATLLSSLLLTGPISAGAETQGLLPAQDLLPDIGTSAGATLSIDQEMAMGDFYVRQMRASAPLIYDPLLTQYINTLGNRLVANANSVRTPFHFYLVNNDQINAFAFFGGNVVLHSALFRYTDNESELASVLAHEISHVTQRHLARAMEEQQRLAPLTWVGVLGSILLTMASPQAGMAGLSGTLAGAQQGIISFTQGNEQEADRIGIQVLQRSGFDPQAMPNFLQKLADQSRYVSKPPEMLLTHPLPDSRLSDARNRANQMKPHPTASSQDYLFAKMRILGMYGADENSLTPELLDKLSKGTVREQLAAKYGQAVQLYQAKKYDEARNLLQPLLAQQPGNIWFLDLMTDIDLGQNKSAAAIARLQNAMVKQNDEPVLQLNLANAYVQGRQPAAAIKLLHRYTFAYPNDPNGWDLLAQATATQGLRDQELAARAESLALSGKLTQAIGLLSDASARVKLGSLEQARYDARIDQLRRLNERFRKYQKS | not soluble
MFCTFFEKHHRKWDILLEKSTGVMEAMKVTSEEKEQLSTAIDRMNEGLDAFIQLYNESEIDEPLIQLDDDTAELMKQARDMYGQEKLNEKLNTIIKQILSISVSEEGEKE | soluble
MSLKFAFIAKHRSIWPVAWLCEALGVSRSGFHAWFNRSPSEHARHDEVLLERIKQSFQSSDRTYGARRVWHDVLEEGLSCGLHRIERLMRLNALRARPRRRGFPKDAGDRPVVMPNVLDRQFVADRPNQKWVADFTYIWTAEGWLYVAAVIDLFSRRVVGWSMNANMTAQLVTDALIMAIWRRGKPDALLHHSDQGSQYTSEQFQRLMGDHGITCSMSRSGNVWDNAAMESFFSSLKTERTARKVYRTRNDARADVFDYIERFYNPKRRHSTLGYLSPDDFETKVGLAEGHHHHHH | not soluble
MGSDKIHHHHHHMTERELEILALLKQDPLIPQQELADRLGISRSAVAGHIMNLTNKGVIRGKGYILAEAKYAMVIGGANMDILGRPASSLRVGDSNPGSVSCSPGGVGRNIAENLARLGSDTRLMTAVGKDAYGQQIVEHCQRAGIDMKPSLQLSDGVTSTYLSVLDGDSDMHVAINDMAILERLGVEQLKSQQEMLKRASLAIIDANLSEAALAYLLSNFADIPLFVDTVSCAKAEKIKPYLGAVHTLKPNLKEAEQLSGISIANYGELPVLANWFHEQGVKRVFLSLGIDGVFYSDGEEQAHIPAIPVEMVNANGAGDAFLAGLAHGFMQGWSTRQSTEFAMAAAVVALSDLATINPNMSEISVNRVIKESLC | not soluble

— the DeepSol protein solubility set
